{
  "source": "paper PMC7367482",
  "about": "“An Erg11 lanosterol 14-α-demethylase-Arv1 complex is required for Candida albicans virulence” (PLoS ONE, 2020)",
  "molecular_target": "T1, ScErg28-Cub (S. cerevisiae, UniProt P40030 1-148)",
  "T1 construct": "Erg28 of S. cerevisiae, scaffold of the ergosome; Cub vector pCYC-BAIT-Cub-PLV; source: split-ubiquitin two-hybrid fusion, S. cerevisiae L40",
  "T1 sequence": "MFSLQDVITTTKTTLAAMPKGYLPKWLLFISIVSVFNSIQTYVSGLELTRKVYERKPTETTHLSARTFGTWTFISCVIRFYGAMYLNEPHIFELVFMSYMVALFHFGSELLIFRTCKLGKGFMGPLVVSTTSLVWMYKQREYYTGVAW",
  "assay": "two-hybrid; split-ubiquitin two-hybrid in S. cerevisiae L40; Cub-PLV and NubG fusions; growth on Trp- Leu- His- plates after 48 hr and >3-fold β-galactosidase activity over the negative control",
  "conditions": "partners not purified",
  "data": [
    {"binder": "ScErg27-NubG (natural protein, Erg27 of S. cerevisiae; Nub vector pADH-PREY-2HA-NubG; source: split-ubiquitin two-hybrid fusion, S. cerevisiae L40) MNRKVAIVTGTNSNLGLNIVFRLIETEDTNVRLTIVVTSRTLPRVQEVINQIKDFYNKSGRVEDLEIDFDYLLVDFTNMVSVLNAYYDINKKYRAINYLFVNAAQGIFDGIDWIGAVKEVFTNPLEAVTNPTYKIQLVGVKSKDDMGLIFQANVFGPYYFISKILPQLTRGKAYIVWISSIMSDPKYLSLNDIELLKTNASYEGSKRLVDLLHLATYKDLKKLGINQYVVQPGIFTSHSFSEYLNFFTYFGMLCLFYLARLLGSPWHNIDGYKAANAPVYVTRLANPNFEKQDVKYGSATSRDGMPYIKTQEIDPTGMSDVFAYIQKKKLEWDEKLKDQIVETRTPI", "values": [
      {"measurement": "fold increase in β-galactosidase activity over the negative interaction control", "result": 15, "unit": "fold"}
    ]}
  ]
}
